Assays:
[1] = target: CXCL8 (human)
[2] = target: Evasin-3 (HEK) (Rhipicephalus sanguineus) (UniProt P0C8E8); assay: SPR
Evasin-3 (HEK) (Rhipicephalus sanguineus), sequence (P0C8E8 21-86): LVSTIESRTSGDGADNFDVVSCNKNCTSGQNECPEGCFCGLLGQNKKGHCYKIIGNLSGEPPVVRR

Evasin-3 (E. coli), sequence (P0C8E8 21-86): as above

Row | IC50 of inhibition of CXCL8-induced chemotaxis of neutrophils in vitro [1] | Kd [2] | Substance
1 | 3.35 nM | – | Evasin-3 (E. coli) (from UniProt P0C8E8 21-86) (natural protein)
2 | – | 0.7 nM | CXCL8 (ligand)

Source: PMC2526197
